For one substance, embryos with secondary axes after injection of frzb-1 mRNA (animal blastomeres) and Xwnt-8 mRNA (vegetal-ventral blastomere); Xwnt-8 alone gave complete secondary axes in 67% of the embryos (n=53) results are on record in patent publication US20020099172A1.

The target in this assay is Xwnt-8 (Xenopus) (UniProt P28026). Put plainly: cell-based or functional assay.
Sequence of UniProt P28026 (P28026 23-358 limits assumed): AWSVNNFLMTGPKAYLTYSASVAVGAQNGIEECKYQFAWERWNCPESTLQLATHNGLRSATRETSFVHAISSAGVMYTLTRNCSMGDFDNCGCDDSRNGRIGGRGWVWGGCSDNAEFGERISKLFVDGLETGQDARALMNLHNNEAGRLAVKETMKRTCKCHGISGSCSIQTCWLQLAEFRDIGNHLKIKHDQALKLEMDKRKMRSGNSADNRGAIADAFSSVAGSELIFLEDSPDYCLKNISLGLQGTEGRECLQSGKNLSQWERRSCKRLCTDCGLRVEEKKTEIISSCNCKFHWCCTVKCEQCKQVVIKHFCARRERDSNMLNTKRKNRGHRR

The substance “frzb-1 (Xenopus, expressed from injected mRNA)” showed an embryos with secondary axes after injection of frzb-1 mRNA (animal blastomeres) and Xwnt-8 mRNA (vegetal-ventral blastomere); Xwnt-8 alone gave complete secondary axes in 67% of the embryos (n=53) of 14%.
